Laboratory results reported in article PMC8044209.

How the values were obtained:
[1] = biological target: Gcn4 cAD (Saccharomyces cerevisiae) (UniProt P03069); experiment: FP; settings: cited from earlier work
[2] = biological target: Gcn4 nAD (Saccharomyces cerevisiae) (UniProt P03069); experiment: FP; settings: cited from earlier work
[3] = biological target: Gcn4 tAD (Saccharomyces cerevisiae) (UniProt P03069); experiment: FP; settings: cited from earlier work
[4] = biological target: Gal4 AD (residues 828–881) labeled with Oregon Green 488 (yeast) (UniProt P04386); experiment: fluorescence polarisation; Oregon Green 488-labelled Gal4 AD; 15 concentrations of Med15 spanning 0–250 μM; 22 °C; 20 mM KH2PO4 pH 7.5, 200 mM KCl; one-site total binding model
[5] = biological target: Gal4 AD (Gal4 residues 828–881) (yeast) (UniProt P04386); experiment: NMR titration; (1H,15N)- and (1H,13C)-HSQC titrations; unlabeled Gal4 AD or ABD added to ~200 μM 13C,15N-labelled AD or ABD; 25 °C; 20 mM sodium phosphate, 150 mM NaCl, 0.1 mM EDTA, 5 mM DTT, pH 6.5
[6] = biological target: Med15 ABD2 (yeast) (UniProt P19659); experiment: ITC; Gal4 AD in the syringe (1.11 mM), Med15 domain in the cell (ABD1 0.102 mM; ABD2 0.11 mM); 22 °C; 20 mM KH2PO4 pH 7.5, 200 mM KCl; single binding site model
[7] = biological target: Med15 ABD1 (yeast) (UniProt P19659); experiment: as above

Row | Substance | Kd [1] [µM] | Kd [2] [µM] | Kd [3] [µM] | Kd [4] [µM] | also measured
1 | Med15 ABD3 (from UniProt P19659) | 13.9 | 2.6 | 4.4 | – | –
2 | Med15 ABD1 (from UniProt P19659) | 2.5 | 3.3 | 2.66 | – | –
3 | Med15 484–651 (ABD3) (from UniProt P19659 484-651) (domain or fragment) | – | – | – | 16.2 | –
4 | Med15 158–651 Δ239–272, Δ373–483 (ABD123) (from UniProt P19659 158-651) (domain or fragment) | – | – | – | 2.04 | –
5 | Med15 ABD2 (from UniProt P19659) | 147 | 21.8 | 19.5 | – | –
6 | Med15 ABD2 (from UniProt P19659 277-368) (domain or fragment) | – | – | – | 98 | –
7 | Med15 ABD1 (from UniProt P19659 158-238) (domain or fragment) | – | – | – | 9.24 | exchange rate [5]: > 250 s⁻¹; lifetime of the bound state [5]: < 4 ms
8 | Med15 ABD123 (from UniProt P19659) | – | 0.36 | – | – | –
9 | Gal4 AD (Gal4 residues 828–881) (from UniProt P04386 828-881) (domain or fragment) | – | – | – | – | Kd [6]: 35 µM; Kd [7]: 9.2 µM
